Molecular target: the molecule itself
Test: SEC

B1: Mycobacterium tuberculosis catalase-peroxidase KatG (enzyme)
chain: MPEQHPPITETTTGAASNGCPVVGHMKYPVEGGGNQDWWPNRLNLKVLHQNPAVADPMGAAFDYAAEVATIDVDALTRDIEEVMTTSQPWWPADYGHYGPLFIRMAWHAAGTYRIHDGRGGAGGGMQRFAPLNSWPDNASLDKARRLLWPVKKKYGKKLSWADLIVFAGNCALESMGFKTFGFGFGRVDQWEPDEVYWGKEATWLGDERYSGKRDLENPLAAVQMGLIYVNPEGPNGNPDPMAAAVDIRETFRRMAMNDVETAALIVGGHTFGKTHGAGPADLVGPEPEAAPLEQMGLGWKSSYGTGTGKDAITSGIEVVWTNTPTKWDNSFLEILYGYEWELTKSPAGAWQYTAKDGAGAGTIPDPFGGPGRSPTMLATDLSLRVDPIYERITRRWLEHPEELADEFAKAWYKLIHRDMGPVARYLGPLVPKQTLLWQDPVPAVSHDLVGEAEIASLKSQIRASGLTVSQLVSTAWAAASSFRGSDKRGGANGGRIRLQPQVGWEVNDPDGDLRKVIRTLEEIQESFNSAAPGNIKVSFADLVVLGGCAAIEKAAKAAGHNITVPFTPGRTDASQEQTDVESFAVLEPKADGFRNYLGKGNPLPAEYMLLDKANLLTLSAPEMTVLVGGLRVLGANYKRLPLGVFTEASESLTNDFFVNLLDMGITWEPSPADDGTYQGKDGSGKVKWTGSRVDLVFGSNSELRALVEVYGADDAQPKFVQDFVAAWDKVMNLDRFDVR
  stoichiometry N: 2

— paper doi:10.1101/2024.09.05.611129 (bioRxiv, 2024)
